No end group written: not given here.
Target: T1, N-terminal cytosolic domain of Sec62 (Sec62 domain; residues 18-145) (S. cerevisiae, UniProt P21825 18-145)
T1 sequence (looked up): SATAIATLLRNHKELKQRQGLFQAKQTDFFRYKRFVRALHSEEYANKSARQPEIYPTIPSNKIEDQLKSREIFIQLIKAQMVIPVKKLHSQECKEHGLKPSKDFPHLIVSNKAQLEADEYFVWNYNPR
Assay: pull-down

B1: Sec63-C1 peptide (residues 621-647 of Sec63), biotin-labeled (peptide, UniProt P14906 621-647, looked up)
peptide: VYSEEDDEYSTDDDETESDDESDASDY
modifications: also: biotin label, position not given here
binding result: binds
